Reference: article PMC11436768 (Nature Communications, 2024)

B1: E3 subunit (dihydrolipoyl dehydrogenase) of native 2-oxoglutarate dehydrogenase complex from Sus scrofa heart (natural protein)
chain: ADQPIDADVTVIGSGPGGYVAAIKAAQLGFKTVCIEKNETLGGTCLNVGCIPSKALLNNSHYYHMAHGKDFASRGIEMSEVRLNLEKMMEQKSNAVKALTGGIAHLFKQNKVVRVNGYGKITGKNQVTATKADGSTEVINTKNILIATGSEVTPFPGITIDEDTVVSSTGALSLKKVPEKMVVIGAGVIGVELGSVWQRLGADVTAVELLGHVGGIGIDMEVSKNFQRILQKQGFKFKLNTKVIGATKKSDGNIDVSIEAASGGKAEVITCDVLLVCIGRRPFTQNLGLEELGIELDPRGRIPVNTRFQTKIPNIYAIGDVVAGPMLAHKAEDEGIICVEGMAGGAVHIDYNCVPSVIYTHPEVAWVGKSEEQLKEEGIEYKVGKFPFAANSRAKTNADTDGMVKILGQKSTDRVLGAHIIGPGAGEMINEAALALEYGASCEDIARVCHAHPTLSEAFREANLAASFGKAINF

Assays:
[1] = target: E1o (S. scrofa full-length E1o, GST tag cut off) (S. scrofa); assay: SPR
[2] = target: the molecule itself; assay: cryo-electron tomography with subtomogram averaging

Molecule	Kd [1]	binding result [2]
E3 (S. scrofa full-length E3, GST tag cut off) (from UniProt P09623 36-509) (natural protein)	1.84 µM	–
B1	–	binds
